According to PMC9512822, “Redβ177 annealase structure reveals details of oligomerization and λ Red-mediated homologous DNA recombination” (Nature Communications, 2022):

T1: Redβ177 (Escherichia coli bacteriophage lambda, UniProt P03698 1-177)
T1 sequence: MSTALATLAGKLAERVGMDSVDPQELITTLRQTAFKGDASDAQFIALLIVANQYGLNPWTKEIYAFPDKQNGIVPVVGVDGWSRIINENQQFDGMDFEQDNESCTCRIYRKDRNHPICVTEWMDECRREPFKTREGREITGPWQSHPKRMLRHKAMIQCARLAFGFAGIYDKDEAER

B1: Redβ177-His6 (N-terminal residues 1-177 of the Redβ annealase of bacteriophage λ) (domain or fragment, bacteriophage lambda (phage λ), UniProt P03698 1-177, looked up)
chain: T1 sequence
notes: Redβ (Beta) annealase, product of the bet gene of bacteriophage lambda, UniProtKB P03698, N-terminal residues 1-177 (C-terminally truncated); The molecule forms a helical filament of no fixed number of subunits; Residues 3-169 were modelled, except 133-138; also called Redβ177-6xHis; Redβ N-terminal domain; not shown: His6, C-terminal, kept
B2: Oligo 1 + Oligo 2 annealing intermediate (27mer) (dsDNA)
DNA 1: TGCAGCAGCTTTACCATCTGCCGCTGG
DNA 2: CCAGCGGCAGATGGTAAAGCTGCTGCA

Key:
[1] = molecular target: the molecule itself; test: cryo-EM structure; purified Redβ177 incubated in turn with two complementary 27mer oligonucleotides (molar ratio 7.7:1:1) in 20 mM KH2PO4 pH 6.0, 5 mM MgCl2, room temperature, then dialysed overnight at 4 °C; helical reconstruction of the 1-start left-handed helix, 3.3 Å; a 2-start assembly was seen only in 2D classes
[2] = molecular target: T1, Redβ177; test: cryo-EM structure (helical reconstruction, 3.3 Å); 5 mM MgCl2; Redβ177:Oligo 1:Oligo 2 7.7:1:1; 4 bp per monomer; base identity averaged, arbitrary sequence modelled; 20 mM KH2PO4 pH 6.0, 5 mM MgCl2; 30 min at room temperature with each oligo, then dialysis overnight at 4 °C; details: protein: recombinant; tags: C-terminal His6; blunt

Binder	binding result [1]	binding result [2]
B1	binds	
B2		binds
